In patent US20150366960A1:
Read-outs that look alike come from different tables or passages of the source.

What was measured:
[1] = target: RSV-F protein (as used in the D25 competition binding assay) (respiratory syncytial virus, strain not stated); test: competition ELISA on infected cells against biotin-labeled D25 at 100 ng/ml constant, A450 [cont'd) D]
[2] = target: HR1 construct containing amino acids 153-221 of RSV A2 F protein (Human respiratory syncytial virus, strain A2)
[3] = target: SK-epitope: amino acids 195-228 of RSV A2 F protein (C212S) in the inhibitor loop of Ecballium elate (Human respiratory syncytial virus, strain A2 (insert); Ecballium elaterium (scaffold))
[4] = target: RSV-F protein (as used in the D25 competition binding assay) (respiratory syncytial virus, strain not stated)
[5] = target: RSV A2 F protein on untreated cells (pre-fusion form) (Human respiratory syncytial virus, strain A2) (UniProt P03420)
[6] = target: RSV-B F protein from strain 18537 (wild type) (Human respiratory syncytial virus, strain 18537 (subtype B)) (UniProt P13843)
[7] = target: RSV A2 F protein on untreated cells (pre-fusion form) (Human respiratory syncytial virus, strain A2) (UniProt P03420); remark: listed apart in the source
[8] = target: RSV A2 F protein on untreated cells (pre-fusion form) (Human respiratory syncytial virus, strain A2) (UniProt P03420); test: cell-based or functional assay
[9] = target: MARM A1 F protein (RSV A2 F, N208Y) (Human respiratory syncytial virus, D25-resistant mutant of strain A2) (UniProt P03420)
[10] = target: MARM B1 F protein (RSV B 18537 F, N201D) (Human respiratory syncytial virus, D25-resistant mutant of strain 18537) (UniProt P13843)
[11] = target: MARM B2 F protein (RSV B 18537 F, L204V) (Human respiratory syncytial virus, D25-resistant mutant of strain 18537) (UniProt P13843)
[12] = target: RSV-B F protein from strain 18537 (wild type) (Human respiratory syncytial virus, strain 18537 (subtype B)) (UniProt P13843); remark: listed apart in the source
[13] = target: MARM A1 F protein (RSV A2 F, N208Y) (Human respiratory syncytial virus, D25-resistant mutant of strain A2) (UniProt P03420); test: cell-based or functional assay
[14] = target: MARM B1 F protein (RSV B 18537 F, N201D) (Human respiratory syncytial virus, D25-resistant mutant of strain 18537) (UniProt P13843); test: cell-based or functional assay
[15] = target: MARM B2 F protein (RSV B 18537 F, L204V) (Human respiratory syncytial virus, D25-resistant mutant of strain 18537) (UniProt P13843); test: cell-based or functional assay
[16] = target: RSV-B F protein from strain 18537 (wild type) (Human respiratory syncytial virus, strain 18537 (subtype B)) (UniProt P13843); test: cell-based or functional assay
[17] = target: MARM A1 F protein (RSV A2 F, N208Y) (Human respiratory syncytial virus, D25-resistant mutant of strain A2) (UniProt P03420); remark: listed apart in the source
[18] = target: MARM B1 F protein (RSV B 18537 F, N201D) (Human respiratory syncytial virus, D25-resistant mutant of strain 18537) (UniProt P13843); remark: listed apart in the source
[19] = target: MARM B2 F protein (RSV B 18537 F, L204V) (Human respiratory syncytial virus, D25-resistant mutant of strain 18537) (UniProt P13843); remark: listed apart in the source

## anti-RSV-F antibody AM22
[1]
  IC50 (read off the curve): 2 µg/mL

## monoclonal antibody D25
[2]
  Kd: 1.9 nM
[3]
  Kd: 0.0585 nM
[4]
  IC50 (read off the curve): 0.6 µg/mL
[5]
  IC50 (read off the curve): 0.1 µg/mL
[6]
  IC50 (read off the curve): 0.07 µg/mL
[7]
  IC50 (read off the curve): 10 µg/mL
[8]
  RSV microneutralization assay (antibody concentration able to neutralize): 1 µg/mL

## motavizumab (antibody)
[9]
  IC50 (read off the curve): 0.1 µg/mL
[10]
  IC50 (read off the curve): 0.06 µg/mL
[11]
  IC50 (read off the curve): 0.04 µg/mL
[12]
  IC50 (read off the curve): 0.1 µg/mL
[13]
  RSV microneutralization assay (antibody concentration able to neutralize): < 100 ng/mL
[14]
  RSV microneutralization assay (antibody concentration able to neutralize): < 100 ng/mL
[15]
  RSV microneutralization assay (antibody concentration able to neutralize): < 100 ng/mL
[16]
  RSV microneutralization assay (antibody concentration able to neutralize): < 100 ng/mL

## palivizumab (antibody)
[17]
  IC50 (read off the curve): 40 µg/mL
[18]
  IC50 (read off the curve): 200 µg/mL
[19]
  IC50 (read off the curve): 300 µg/mL
[13]
  RSV microneutralization assay (antibody concentration able to neutralize): 100000 ng/mL
[14]
  RSV microneutralization assay (antibody concentration able to neutralize): 100000 ng/mL
[15]
  RSV microneutralization assay (antibody concentration able to neutralize): 100000 ng/mL
